The supplement of paper PMC10724198
± gives the standard deviation of the averaged measurements.

System: Saccharomyces cerevisiae
Experiment: protein stability index of tFT-peptide fusion (C-terminal peptide) (PSI (0-1 scale)); higher = more stable (slower turnover)
Conditions: genetic background: wild type; temperature: 30 C
Method: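 Multiplexed protein stability (MPS) profiling in S. cerevisiae. Random 12-aa peptides (tFT-X12 library) are fused to the C-terminus of a sfGFP-mCherry tandem fluorescent timer, after mCherry and a GGGS linker. Cells are FACS-sorted into 8 mCherry/sfGFP bins and deep-sequenced. The protein stability index (PSI) is the read-weighted bin average, scaled from 0 (unstable) to 1 (stable). Only peptides with >10 reads are reported; cells were grown at 30 °C in SC-His with glucose.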
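Also: PSI is a weighted mean of sequencing reads over stability bins, variants kept only with over 10 reads, mCherry proximal and sfGFP distal, peptide attached via GGGS linker.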

Sequence	protein stability index
RTAPVPETAQQD	0.678 ± 0.034
PLPPPPPPPSPS	0.835 ± 0.11
MSGVWLWVGGGG	0.73 ± 0.078
GWGGGCGCGRGI	0.687 ± 0.058
SVSRGSWVWGRL	0.723 ± 0.061
GPTSTETYKEVG	0.671 ± 0.0011
KTNLGNTKVKKK	0.613 ± 0.025
GRGGRGWGEWDR	0.706 ± 0.059
FTARAGRLQSVF	0.627 ± 0.0097
VCKQASDSKLQG	0.663 ± 0.023
LRPLPSPPPSLH	0.603 ± 0.0066
YLSVPVGPAMAL	0.643 ± 0.1
DKKATTSIGIKK	0.642 ± 0.07
SALTPCPPPYSH	0.668 ± 0.032
PLLLLLPPPPSP	0.674 ± 0.033
NISSFKHVLAYK	0.624 ± 0.06
PPLSPPPSASSS	0.738 ± 0.065
REENIKSKCRKI	0.742 ± 0.021
PTRTSHLCLIPP	0.67 ± 0.075
SLPLLPHLPASP	0.698 ± 0.17
SNHPPLSFHTGR	0.734 ± 0.0084
GFSCLALFCRVD	0.587 ± 0.019
PPHAPKPPPTAA	0.588 ± 0.077
VGPWQVQRLLWT	0.623 ± 0.056
WHSGVICQTVLM	0.651 ± 0.014

Sequence	protein stability index
PSPRSSPPCSAS	0.693 ± 0.039
LSFGPISGTPFR	0.661 ± 0.048
RRATHTRDINNL	0.643 ± 0.015
PPLEHPGIAGGR	0.644 ± 0.1
DPRSPLSHSFLR	0.706 ± 0.044
SGKKERQKTEEE	0.645 ± 0.1
KKGKEKEVKKKK	0.646 ± 0.074
GSSHLRFRGMEG	0.614 ± 0.02
SDFAPTRPPPAP	0.634 ± 0.051
YTPEVSVFFFRT	0.6233 ± 0.0014
KIDKKSKKKKEI	0.684 ± 0.017
VIPYLISSLYAV	0.691 ± 0.13
KKEEIIIGGKKI	0.663 ± 0.043
RWAMGAAGGLQA	0.697 ± 0.021
LEGGVREMRGDG	0.641 ± 0.053
GVFWRGCGGCGG	0.685 ± 0.041
LLSCLDILFFFI	0.609 ± 0.016
RYGHSRLCLGFR	0.657 ± 0.12
VAVWGGSGDWGR	0.729 ± 0.068
KKEKVKKKKGNN	0.723 ± 0.013
YYSTQTQATYRH	0.6773 ± 0.0025
FLFTLPPPPRCH	0.709 ± 0.088
SPLPPPPPSSSS	0.661 ± 0.016
GLGTAFGAADTV	0.693 ± 0.012
VVWRRVIGGLVM	0.637 ± 0.031

Sequence	protein stability index
RGLSGSHRAGIV	0.69334 ± 0.00034
KIDKKNKKKKRN	0.728 ± 0.023
SFRDSFVNFGVF	0.695 ± 0.045
KRYKSYEDKNVM	0.696 ± 0.033
SKITENTKKKGK	0.658 ± 0.019
CLRDTLTCLFFF	0.5953 ± 0.0044
PGNKHYRARNGA	0.678 ± 0.013
KDKNPDARDDGG	0.705 ± 0.04
APARPCPLLSTS	0.612 ± 0.034
TARDLEGTRAKG	0.638 ± 0.028
SITYDRLLPHSS	0.6594 ± 0.0063
GGPNKRTGVWGR	0.657 ± 0.0069
LVFSSVVISCDI	0.528 ± 0.0092
LMVGFRSFNVKC	0.618 ± 0.051
FSLPSRAPLPRF	0.735 ± 0.13
SSRRYSGLSFTS	0.702 ± 0.015
SLSVMSAPLVGI	0.636 ± 0.056
LSGNLLLSSLLQ	0.654 ± 0.049
VGAPGGVETTKA	0.685 ± 0.015
NKKKKKKRNGAP	0.658 ± 0.028
SGEVIRVTDWLV	0.719 ± 0.038
LTLPPRPPSPPS	0.675 ± 0.08
TGNQCGNGYSWR	0.696 ± 0.013
PPPPPSPLPPRP	0.624 ± 0.045
DSNTAGLTRDIA	0.645 ± 0.015

Sequence	protein stability index
VFPIISYPHTKS	0.6779 ± 0.0064
RSSGPPCLIPLP	0.787 ± 0.047
RLGKRKKPYTQG	0.756 ± 0.077
ATLDVTALRQES	0.636 ± 0.011
RYSPFSFLASLP	0.732 ± 0.049
PSLLLPPLPLYT	0.662 ± 0.031
SLPPPPAPPPAI	0.706 ± 0.086
CPGVLVLMCGRP	0.589 ± 0.009
PWGSPLMACRSC	0.694 ± 0.02
PRTDIGGAGLGE	0.6961 ± 0.0019
GEGLGGGRGRRW	0.653 ± 0.026
HFVDAIPEGIHA	0.583 ± 0.023
LFPLPHPLPVSL	0.6146 ± 0.0053
GVESQIHISTYE	0.686 ± 0.049
SAWTPPLCLLPP	0.711 ± 0.043
KGETRLTSARLI	0.706 ± 0.028
PPPLPPPPAPPY	0.734 ± 0.018
KDKEQKKIKKSI	0.681 ± 0.13
LRGFGLGLRFFF	0.65 ± 0.013
ALRVAVIANMRV	0.5724 ± 0.0057
PPCPPPPPVLPT	0.66722 ± 0.00014
VIKESKKKTKKI	0.544 ± 0.044
HPRWTPPTQSAS	0.716 ± 0.049
